Experimental data taken from patent US10442866.

Tests used:
[1] = biological target: recombinant human OX40-his (Sino Biological, Cat#:10481-H03H) (human) (UniProt P43489); assay: ELISA, coated hOX40-his
[2] = biological target: human OX40-CD40 fusion protein on HEK-Blue reporter cells (human); assay: cell-based or functional assay
[3] = biological target: recombinant rhesus OX40-his (Sino Biological, Cat#:90846-C08H) (rhesus monkey); assay: ELISA on coated rhesus OX40-His, OD450
[4] = biological target: rhesus OX40 expressed on HEK293A cells (rhesus); assay: FACS on HEK293A/rhOX40 cells, MFI
Sequence of rhesus OX40 expressed on HEK293A cells (rhesus) (P43489 other isoform, or with tags, fused parts or gaps limits assumed): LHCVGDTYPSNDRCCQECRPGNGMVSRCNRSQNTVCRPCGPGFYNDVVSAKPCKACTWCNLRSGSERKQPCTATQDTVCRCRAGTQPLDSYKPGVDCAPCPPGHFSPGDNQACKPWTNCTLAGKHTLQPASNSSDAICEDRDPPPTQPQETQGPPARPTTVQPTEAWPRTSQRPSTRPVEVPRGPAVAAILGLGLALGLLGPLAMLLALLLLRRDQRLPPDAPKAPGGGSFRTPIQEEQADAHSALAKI

[5] = biological target: recombinant rhesus OX40-his (Sino Biological, Cat#:90846-C08H) (rhesus monkey); assay: ELISA, coated rhOX40-his
[6] = biological target: recombinant human OX40-his (Sino Biological, Cat#:10481-H03H) (human) (UniProt P43489); assay: ELISA on coated human OX40-His, OD450
[7] = biological target: human OX40 expressed on HEK293A cells (human) (UniProt P43489); assay: FACS on HEK293A/huOX40 cells, MFI
Sequence of human OX40 expressed on HEK293A cells (human) (P43489 29-277 limits assumed): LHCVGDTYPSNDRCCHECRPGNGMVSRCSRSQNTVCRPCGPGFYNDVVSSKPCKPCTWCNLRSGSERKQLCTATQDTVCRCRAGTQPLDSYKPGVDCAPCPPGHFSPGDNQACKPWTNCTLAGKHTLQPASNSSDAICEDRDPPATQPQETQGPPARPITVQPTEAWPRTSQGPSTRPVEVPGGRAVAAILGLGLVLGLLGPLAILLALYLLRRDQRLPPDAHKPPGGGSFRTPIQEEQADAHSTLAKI

[8] = biological target: recombinant human OX40-his (Sino Biological, Cat#:10481-H03H) (human) (UniProt P43489); assay: SPR Biacore 8K, OX40-His on chip, antibody injected
[9] = biological target: rhesus OX40 expressed on HEK293A cells (rhesus); assay: FACS on HEK293A cells
[10] = biological target: human OX40 expressed on HEK293A cells (human) (UniProt P43489); assay: FACS on HEK293A cells

Sequence of recombinant human OX40-his (Sino Biological, Cat#:10481-H03H) (human) (P43489 29-214 limits assumed): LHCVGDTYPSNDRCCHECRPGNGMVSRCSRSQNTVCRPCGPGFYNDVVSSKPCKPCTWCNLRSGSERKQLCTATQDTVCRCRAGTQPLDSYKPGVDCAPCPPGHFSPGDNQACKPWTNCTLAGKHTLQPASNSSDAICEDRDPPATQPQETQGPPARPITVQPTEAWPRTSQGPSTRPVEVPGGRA
Sequence of recombinant rhesus OX40-his (Sino Biological, Cat#:90846-C08H) (rhesus monkey) (P43489 other isoform, or with tags, fused parts or gaps C08H C08H limits assumed): as the sequence (P43489 29-214 limits assumed) above, with H16Q, S29N, S50A, P55A, L70P, A145P, I159T, G173R, G183R, R185P counted along it
Sequence of human OX40-CD40 fusion protein on HEK-Blue reporter cells (human) (chain, as listed by the source limits assumed): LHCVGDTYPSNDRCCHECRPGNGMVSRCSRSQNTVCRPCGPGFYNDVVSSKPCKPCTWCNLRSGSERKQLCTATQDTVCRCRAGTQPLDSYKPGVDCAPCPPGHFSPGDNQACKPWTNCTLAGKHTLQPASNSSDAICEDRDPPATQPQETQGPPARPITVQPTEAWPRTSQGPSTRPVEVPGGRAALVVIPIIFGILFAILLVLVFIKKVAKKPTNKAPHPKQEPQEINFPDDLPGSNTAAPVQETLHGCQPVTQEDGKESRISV

EC50 [1] [µg/mL]	EC50, agonistic activity in HEK-Blue assay [2] [µg/mL]	EC50 (read off the curve) [3] [µg/mL]	EC50 (read off the curve) [4] [µg/mL]	EC50 [5] [µg/mL]	EC50 (read off the curve) [6] [µg/mL]	EC50 (read off the curve) [7] [µg/mL]	Kd [8] [nM]	koff [8] [s⁻¹]	kon [8] [M⁻¹ s⁻¹]	EC50 [9] [µg/mL]	EC50 [10] [µg/mL]	Binder
0.0651	0.31	0.003	0.3	0.0546	0.003	0.3	1.79	0.000154	86300	0.088	0.0935	MEDI0562 (antibody, INN chains, looked up, V domains shown) VH: QVQLQESGPGLVKPSQTLSLTCAVYGGSFSSGYWNWIRKHPGKGLEYIGYISYNGITYHNPSLKSRITINRDTSKNQYSLQLNSVTPEDTAVYYCARYKYDYDGGHAMDYWGQGTLVTVSS VL: DIQMTQSPSSLSASVGDRVTITCRASQDISNYLNWYQQKPGKAPKLLIYYTSKLHSGVPSRFSGSGSGTDYTLTISSLQPEDFATYYCQQGSALPWTFGQGTKVEIK
0.0637	0.121	0.003		0.0668	0.003		0.00549	1.76e-06	322000	0.113	0.134	RG7888 (antibody, INN chains, looked up, V domains shown) VH: EVQLVQSGAEVKKPGASVKVSCKASGYTFTDSYMSWVRQAPGQGLEWIGDMYPDNGDSSYNQKFRERVTITRDTSTSTAYLELSSLRSEDTAVYYCVLAPRWYFSVWGQGTLVTVSS VL: DIQMTQSPSSLSASVGDRVTITCRASQDISNYLNWYQQKPGKAPKLLIYYTSRLRSGVPSRFSGSGSGTDFTLTISSLQPEDFATYYCQQGHTLPPTFGQGTKVEIK
